The values below come from publication PMC5389655.

Assay [1] has as its target Escherichia coli core RNA polymerase, assembled into synthetic transcription elongation complexes (TECs) (E. coli) (UniProt P0A8V2).
Assay [2] has the same target. Briefly: […]) at 10 nM, […].
For assay [3] the target is unchanged. Briefly: native gel or EMSA.
Assay [4] shares this target. Briefly: native gel or EMSA. The source holds these as a separate data set. On the technique in general: A gel shift assay detects complexes by their altered migration in electrophoresis.

A value given as a limit tells only on which side of the number the result lay.

Sequence of UniProt P0A8V2 (P0A8V2 whole entry, looked up, one chain of several): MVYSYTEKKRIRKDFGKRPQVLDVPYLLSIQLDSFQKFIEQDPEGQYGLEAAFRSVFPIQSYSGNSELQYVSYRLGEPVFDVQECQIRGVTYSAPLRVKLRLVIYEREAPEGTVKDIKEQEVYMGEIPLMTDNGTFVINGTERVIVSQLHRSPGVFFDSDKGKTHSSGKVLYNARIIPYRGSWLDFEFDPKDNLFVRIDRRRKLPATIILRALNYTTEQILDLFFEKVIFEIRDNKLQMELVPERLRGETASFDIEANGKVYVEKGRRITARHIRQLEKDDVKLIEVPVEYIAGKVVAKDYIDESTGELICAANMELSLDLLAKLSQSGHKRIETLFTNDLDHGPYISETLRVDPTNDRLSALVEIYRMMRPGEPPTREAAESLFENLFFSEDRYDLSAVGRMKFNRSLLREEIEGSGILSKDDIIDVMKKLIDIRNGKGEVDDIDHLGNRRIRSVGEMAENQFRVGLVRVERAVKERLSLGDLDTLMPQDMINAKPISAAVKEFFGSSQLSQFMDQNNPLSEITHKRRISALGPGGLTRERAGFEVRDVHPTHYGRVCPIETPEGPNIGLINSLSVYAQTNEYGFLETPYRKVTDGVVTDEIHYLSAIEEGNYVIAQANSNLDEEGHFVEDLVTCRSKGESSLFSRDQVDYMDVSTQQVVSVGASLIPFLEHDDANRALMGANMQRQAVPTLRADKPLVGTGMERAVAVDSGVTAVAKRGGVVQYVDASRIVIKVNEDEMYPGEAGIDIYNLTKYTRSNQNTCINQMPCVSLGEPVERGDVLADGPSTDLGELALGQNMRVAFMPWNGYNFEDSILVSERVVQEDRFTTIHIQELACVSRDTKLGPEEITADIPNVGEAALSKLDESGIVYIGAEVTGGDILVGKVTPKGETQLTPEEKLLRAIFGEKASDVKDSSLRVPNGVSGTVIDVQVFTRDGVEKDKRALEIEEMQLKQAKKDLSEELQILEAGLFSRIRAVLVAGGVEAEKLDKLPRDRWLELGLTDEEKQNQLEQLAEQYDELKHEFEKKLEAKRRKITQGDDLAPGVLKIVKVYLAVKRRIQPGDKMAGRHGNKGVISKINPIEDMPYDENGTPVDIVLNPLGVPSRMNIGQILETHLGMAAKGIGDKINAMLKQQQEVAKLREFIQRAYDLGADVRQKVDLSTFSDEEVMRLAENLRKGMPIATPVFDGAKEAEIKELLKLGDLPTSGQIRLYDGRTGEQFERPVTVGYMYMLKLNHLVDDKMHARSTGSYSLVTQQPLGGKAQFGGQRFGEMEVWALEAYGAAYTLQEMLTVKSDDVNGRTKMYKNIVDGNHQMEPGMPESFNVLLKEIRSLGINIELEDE

For orientation: Kd means the constant that tells how readily two partners part at equilibrium. “Escherichia coli σ^38 subunit (stationary phase and stress response σ factor) (from UniProt P13445 1-330) (natural protein)” had a Kd from pausing efficiency in the transcription assay on the '-TG' TEC variant in assay [1] of 525 nM. In addition, the Kd in assay [2] was 330 nM; in assay [3], over 10000 nM; in assay [4] it was 900 nM.
